Positions count from the first letter of the chain named.
What was measured:
[1] = target: T1, receptor for HCG in plasma membranes from bovine corpora lutea (Bos taurus, UniProt Q28005); experiment: Radioreceptorassay of HCG: competition with 125I-HCG for plasma membrane receptor; assay type: binding; conditions: for cross-reaction in the radioreceptorassay of HCG: highly purified preparations, 30 minutes at 37° C
T1 construct: 100 g. of tissue from approximately 25 large corpora lutea; from tissue; host or cells: bovine corpora lutea of early pregnancy (slaughterhouse), plasma membrane fraction from zonal sucrose gradient
T1 sequence (Q28005 27-701): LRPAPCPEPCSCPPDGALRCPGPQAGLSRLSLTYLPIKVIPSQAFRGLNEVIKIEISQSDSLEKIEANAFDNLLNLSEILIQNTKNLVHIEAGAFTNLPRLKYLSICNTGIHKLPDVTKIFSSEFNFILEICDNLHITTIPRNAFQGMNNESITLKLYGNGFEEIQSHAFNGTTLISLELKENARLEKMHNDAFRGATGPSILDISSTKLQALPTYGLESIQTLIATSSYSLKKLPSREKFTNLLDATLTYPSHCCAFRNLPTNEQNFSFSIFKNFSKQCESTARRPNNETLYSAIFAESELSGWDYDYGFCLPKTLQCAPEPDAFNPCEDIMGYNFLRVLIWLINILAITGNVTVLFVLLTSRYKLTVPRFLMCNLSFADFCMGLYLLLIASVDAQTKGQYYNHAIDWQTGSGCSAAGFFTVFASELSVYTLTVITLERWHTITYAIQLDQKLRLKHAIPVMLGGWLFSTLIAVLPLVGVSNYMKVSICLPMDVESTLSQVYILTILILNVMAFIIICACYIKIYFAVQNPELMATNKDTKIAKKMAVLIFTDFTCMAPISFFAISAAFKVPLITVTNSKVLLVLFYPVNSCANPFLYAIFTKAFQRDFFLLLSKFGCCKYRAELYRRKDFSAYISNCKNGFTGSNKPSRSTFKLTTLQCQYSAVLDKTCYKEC
Protocol: All procedures in the preparation of plasma membranes were carried out in an ice bath or at 4° C. Fresh bovine ovaries from early pregnancy (first trimester: fetus length from crown to rump up to 22 cm.) were obtained from the slaughter house and stored in liquid nitrogen until processed. In a typical experiment, 100 g. of tissue from approximately 25 large corpora lutea were cut into small pieces with a sharp steel blade and ground in 500 ml. of 10 mM. Tris-HCl buffer of pH. 7.8 containing one mM. of MgCl2, one MM. dithiothreitol, 10,000I.U. of Trasylol (FBA Pharmaceuticals) per liter and 0.25 M. sucrose. The homogenate was filtered through two layers of cheese cloth and the larger particles were reprocessed in 500 ml. of the buffer. […] The homogenate was centifuged at 650 xg. for 20 minutes in a Sorvall refrigerated centrifuge (RC B, Rotor GSA) to remove intact cells, cell debris and nuclei. The 650 × g. supernatant was again centrifuged at 13,000 g. for 20 minutes in the same centrifuge. Supernatant was this time discarded and the pellet was resuspended in 50 to 70 ml. of the Tris-HCl buffer with the aid of the Teflon-glass homogenizer. This suspension was injected in the core of a TI-14 zonal rotor (Model Beckman Spinco L3-50) spinning at 3,000 rpm. and containing 500 ml. of a linear sucrose gradient (LKB Ultrograd 11300 pump) from 30% (w/v) to 50% (w/v) sucrose and 120 ml. of cushion of 50% (w/v) sucrose (pumping rate 20 ml./min.) An overlay of 20 ml. was injected after the sample. After two hours of centrifugation at 45,000 rpm., the centrifuge was decelerated and the rotor content displaced with 55% sucrose at 20 ml./min. […]
In Table I, the incubation was performed for 30 minutes at 37° C. in a Dunaboff water bath shaker. […] The supernates were aspirated and the pellets were counted in a Packard Autogamma counter with a 51% efficiency for I^125. The standard curves and the hormonal concentration in the plasma samples were calculated by a time sharing IBM computer using logit-log transformations.

[2] = target: T2, PRL receptor sites in plasma membrane from bovine corpora lutea (Bos taurus, UniProt Q28172); experiment: Binding of 125I-hPRL to plasma membrane / ovarian homogenate (saturation, time course)
T2 construct: plasma membrane from bovine corpora lutea; from tissue; host or cells: bovine corpora lutea, plasma membranes
T2 sequence (Q28172 25-581): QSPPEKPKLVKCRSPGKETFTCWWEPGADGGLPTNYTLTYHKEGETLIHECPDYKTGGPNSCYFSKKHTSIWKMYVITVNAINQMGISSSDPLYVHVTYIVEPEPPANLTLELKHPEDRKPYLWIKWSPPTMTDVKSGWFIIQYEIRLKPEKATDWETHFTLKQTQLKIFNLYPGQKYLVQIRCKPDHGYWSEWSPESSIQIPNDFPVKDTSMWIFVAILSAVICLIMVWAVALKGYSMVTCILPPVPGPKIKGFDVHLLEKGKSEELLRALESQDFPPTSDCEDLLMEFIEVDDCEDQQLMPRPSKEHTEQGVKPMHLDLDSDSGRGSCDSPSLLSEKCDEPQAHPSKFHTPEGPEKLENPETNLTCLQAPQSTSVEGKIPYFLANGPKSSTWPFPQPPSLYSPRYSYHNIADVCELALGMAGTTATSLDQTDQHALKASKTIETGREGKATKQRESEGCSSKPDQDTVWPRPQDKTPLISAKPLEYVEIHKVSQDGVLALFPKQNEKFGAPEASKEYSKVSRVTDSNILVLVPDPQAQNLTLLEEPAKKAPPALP
Protocol: […] At the end of incubation, 1 ml of ice cold buffer was added to all tubes and tubes were centrifuged at 5,000 rpm for 20 minutes. The supernatants were aspirated. The pellets containing receptor bound hormones were counted in an Automamma counter with a 51% efficiency for ^125 I (Packard Instrument Company, Downers Grove, Illinois). Specific binding was calculated as the difference of binding in the tubes with and without unlabeled PRL. Specific binding of ^125 I-hPRL to plasma membrane from bovine corpora lutea was a saturable process.

[3] = target: T3, PRL receptor sites in ovarian homogenates (Bos taurus, UniProt Q28172); experiment: Specificity of 125I-hPRL binding: displacement by unlabeled hormones; design: species or system bovine
T3 construct: from tissue; host or cells: ovarian homogenate (bovine, from the preparation section)
T3 sequence (Q28172 25-581): T2 sequence (Q28172 25-581)
Protocol: A reaction mixture containing 100 ul of incubation buffer containing 10 IU Trasylol (FBA Pharmaceuticals, New York, New York), 50 ul of receptor preparation equivalent to 1-300 ug of protein and 100 ul of ^125 I-hPRL (SA; 50-70 uCi/ug) were incubated at 37° C. for 2 hours in the absence and in the presence of 1 ug of unlabeled bovine PRL. At the end of incubation, 1 ml of ice cold buffer was added to all tubes and tubes were centrifuged at 5,000 rpm for 20 minutes. The supernatants were aspirated. The pellets containing receptor bound hormones were counted in an Automamma counter with a 51% efficiency for ^125 I (Packard Instrument Company, Downers Grove, Illinois). Specific binding was calculated as the difference of binding in the tubes with and without unlabeled PRL.

B1: prolactin (protein, UniProt P01236 29-227, looked up)
Prolactin: LPICPGGAARCQVTLRDLFDRAVVLSHYIHNLSSEMFSEFDKRYTHGRGFITKAINSCHTSSLATPEDKEQAQQMNQKDFLSLIVSILRSWNEPLYHLVTEVRGMQEAPEAILSKAVEIEEQTKRLLEGMELIVSQVHPETKENEIYPVWSGLPSLQMADEESRLSAYYNLLHCLRRDSHKIDNYLKLLKCRIIHNNNC
cross-reaction in the radioreceptorassay of HCG (FIG. 2) ([1]; FIG. 2 legends: TSH, HGH, PRL are plasma from hypothyroid, acromegalic, postpartum lactation subjects): no cross-reaction | cross-reaction in the radioreceptorassay of HCG [1]: complete lack of cross-reaction

B2: ^125 I-hPRL: human prolactin iodinated with 125I by chloramine-T or lactoperoxidase (protein, UniProt P01236 29-227, looked up)
Prolactin: B1 Prolactin
modifications: 125I label
notes: human prolactin iodinated with 125I by chloramine-T or lactoperoxidase
fraction of 125I-hPRL bound ([2]; 100 ug of homogenate, absence of unlabeled PRL): 20-20% | time to reach binding equilibrium ([2]; 37° C): 2 h | binding ([2]; incubation): little binding

B3: bovine PRL: bovine prolactin, unlabeled (protein, UniProt P01239 31-229, looked up)
Prolactin: TPVCPNGPGNCQVSLRDLFDRAVMVSHYIHDLSSEMFNEFDKRYAQGKGFITMALNSCHTSSLPTPEDKEQAQQTHHEVLMSLILGLLRSWNDPLYHLVTEVRGMKGAPDAILSRAIEIEEENKRLLEGMEMIFGQVIPGAKETEPYPVWSGLPSLQTKDEDARYSAFYNLLHCLRRDSSKIDTYLKLLNCRIIYNNNC
potency in competing with 125I-hPRL [3]: essentially of similar potency | effect on specific binding of 125I-hPRL to ovarian homogenates ([3]; 1 ug unlabeled hormone added): inhibited

B4: ovine PRL: ovine prolactin (protein, UniProt P01240 31-229, looked up)
Prolactin: B3 Prolactin with D31N, A108V, Y165H
potency in competing with 125I-hPRL [3]: essentially of similar potency

B5: HPL: highly purified preparation of HPL, abbreviation not expanded in the text (protein, UniProt P0DML2 27-217, looked up)
Chorionic somatomammotropin …: VQTVPLSRLFDHAMLQAHRAHQLAIDTYQEFEETYIPKDQKYSFLHDSQTSFCFSDSIPTPSNMEETQQKSNLELLRISLLLIESWLEPVRFLRSMFANNLVYDTSDSDDYHLLKDLEEGIQTLMGRLEDGSRRTGQILKQTYSKFDTNSHNHDALLKNYGLLYCFRKDMDKVETFLRMVQCRSVEGSCGF
cross-reaction in the radioreceptorassay of HCG [1]: complete lack of cross-reaction

B6: human chorionic somatomammotropin (protein, UniProt P0DML2 27-217, looked up)
Chorionic somatomammotropin …: B5 Chorionic somatomammotropin …
displacement of 125I-hPRL bound to receptor protein ([3]; various concentrations): capable of displacing

From patent US4016250A, “Method for testing for pregnancy” (Cornell Research Foundation, Inc., priority 1974, dated 1977)
